Measured values published in US20230381310A1.

Biological target: human FcγRIIb (CD32B) (human) (UniProt P31994)
Assay: cell-based or functional assay

Sequence of UniProt P31994 (P31994 43-310): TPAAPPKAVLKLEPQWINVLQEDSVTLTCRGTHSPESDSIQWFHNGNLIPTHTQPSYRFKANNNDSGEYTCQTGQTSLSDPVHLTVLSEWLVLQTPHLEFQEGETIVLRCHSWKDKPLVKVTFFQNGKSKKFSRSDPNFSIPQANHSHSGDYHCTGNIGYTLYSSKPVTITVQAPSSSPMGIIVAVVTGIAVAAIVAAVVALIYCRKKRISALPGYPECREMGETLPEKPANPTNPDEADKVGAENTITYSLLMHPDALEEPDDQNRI

surface accessible CD20 after 6 h culture (CLL cells): 40%
Substance: rituximab F(ab')2 fragment
